According to patent US20040253247A1 (Genentech, published 2004):
Where no end group is shown, it is not given here.

T1: ovalbumin (UniProt P01012 2-386)
T1 sequence (looked up): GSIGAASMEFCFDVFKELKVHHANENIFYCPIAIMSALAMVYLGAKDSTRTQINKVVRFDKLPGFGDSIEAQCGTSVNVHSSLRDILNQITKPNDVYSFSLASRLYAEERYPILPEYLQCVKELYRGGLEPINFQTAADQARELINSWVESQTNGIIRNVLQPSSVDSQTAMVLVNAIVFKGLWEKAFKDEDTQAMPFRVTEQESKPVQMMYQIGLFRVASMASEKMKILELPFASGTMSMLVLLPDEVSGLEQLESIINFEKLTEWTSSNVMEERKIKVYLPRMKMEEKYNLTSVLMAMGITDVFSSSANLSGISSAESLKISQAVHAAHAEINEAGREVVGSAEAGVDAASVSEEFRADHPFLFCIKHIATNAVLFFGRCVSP


Assays:
ovalbumin = target: T1, ovalbumin; assay: phage ELISA, photograph of the plate
IgG-Fc [1] = target: T2, IgG-Fc (UniProt P01857-1 108-330 = IgG part, limits assumed); assay: phage ELISA, M13/gIII display, ALA scan
T2 construct: domain: IgG-Fc; also called biotinylated-IgG-Fc; biotin-IgG-Fc

IgG-Fc [2] = target: T2, IgG-Fc; assay: phage ELISA, M13/gIII display

Row | Binder | EC50 (IgG-Fc [2]) [nM] | also measured
1 | QRHPEDICLPRWGCLWGDDD (not fully specified (bridges); cysteine pairing not given here, phage clone, Library RB) [RB-H1] | – | binding result (ovalbumin): no binding
2 | HSQMEDICLPRWGCLWGDEL (not fully specified (bridges); cysteine pairing not given here, phage clone, Library RB) [RB-B8] | – | binding result (ovalbumin): no binding
3 | QGLIGDICLPRWGCLWGDSV (not fully specified (bridges); printed as Gln-Gly-Leu-Ile-Gly-Asp-Ile-Cys-Leu-Pro-Arg-Trp-Gly-Cys-Leu-Trp-Gly-Asp-Ser-Val; cysteine pairing not given here, phage clone, Library RB) [RB-R8] | – | binding result (ovalbumin): no binding
4 | AEADCAWHLGELVWCTKVEE (M13/gIII phage display; ALA Scan on Phage) [phage clone AEADCAWHLGELVWCTKVEE] | – | EC50 (IgG-Fc [1]): 20 nM
5 | GEADCAWHLGELVWCTKVEE (M13/gIII phage display; Secondary Optimization) [phage clone GEADCAWHLGELVWCTKVEE] | 38 | –
6 | WAADCAWHLGELVWCTKVEE (M13/gIII phage display; ALA Scan on Phage) [phage clone WAADCAWHLGELVWCTKVEE] | – | EC50 (IgG-Fc [1]): 34 nM
7 | WEAACAWHLGELVWCTKVEE (M13/gIII phage display; ALA Scan on Phage) [phage clone WEAACAWHLGELVWCTKVEE] | – | EC50 (IgG-Fc [1]): 55 nM
8 | WEAACSWHLGELVWCTKVEE (M13/gIII phage display; ALA Scan on Phage) [phage clone WEAACSWHLGELVWCTKVEE] | – | EC50 (IgG-Fc [1]): 10 nM
9 | WEADCAAHLGELVWCTKVEE (M13/gIII phage display; ALA Scan on Phage) [phage clone WEADCAAHLGELVWCTKVEE] | – | EC50 (IgG-Fc [1]): 798 nM
10 | WEADCAWALGELVWCTKVEE (M13/gIII phage display; ALA Scan on Phage) [phage clone WEADCAWALGELVWCTKVEE] | – | EC50 (IgG-Fc [1]): 139 nM
11 | WEADCAWHAGELVWCTKVEE (M13/gIII phage display; ALA Scan on Phage) [phage clone WEADCAWHAGELVWCTKVEE] | – | EC50 (IgG-Fc [1]): 56 nM
12 | WEADCAWHLAELVWCTKVEE (M13/gIII phage display; ALA Scan on Phage) [phage clone WEADCAWHLAELVWCTKVEE] | – | EC50 (IgG-Fc [1]): 12 nM
13 | WEADCAWHLGALVWCTKVEE (M13/gIII phage display; ALA Scan on Phage) [phage clone WEADCAWHLGALVWCTKVEE] | – | EC50 (IgG-Fc [1]): 11 nM
14 | WEADCAWHLGEAVWCTKVEE (M13/gIII phage display; ALA Scan on Phage) [phage clone WEADCAWHLGEAVWCTKVEE] | – | EC50 (IgG-Fc [1]): 1890 nM
15 | WEADCAWHLGELAWCTKVEE (M13/gIII phage display; ALA Scan on Phage) [phage clone WEADCAWHLGELAWCTKVEE] | – | EC50 (IgG-Fc [1]): 4670 nM
16 | WEADCAWHLGELVACTKVEE (M13/gIII phage display; ALA Scan on Phage) [phage clone WEADCAWHLGELVACTKVEE] | – | EC50 (IgG-Fc [1]): 3380 nM
17 | WEADCAWHLGELVWCAKVEE (M13/gIII phage display; ALA Scan on Phage) [phage clone WEADCAWHLGELVWCAKVEE] | – | EC50 (IgG-Fc [1]): 101 nM
18 | WEADCAWHLGELVWCTAVEE (M13/gIII phage display; ALA Scan on Phage) [phage clone WEADCAWHLGELVWCTAVEE] | – | EC50 (IgG-Fc [1]): 10 nM
19 | WEADCAWHLGELVWCTKAEE (M13/gIII phage display; ALA Scan on Phage) [phage clone WEADCAWHLGELVWCTKAEE] | – | EC50 (IgG-Fc [1]): 8 nM
20 | WEADCAWHLGELVWCTKVAE (M13/gIII phage display; ALA Scan on Phage) [phage clone WEADCAWHLGELVWCTKVAE] | – | EC50 (IgG-Fc [1]): 4 nM

Row | Binder | EC50 (IgG-Fc [2]) [nM] | also measured
21 | WEPDCAWHLGELVWCTKVEE (M13/gIII phage display; ALA Scan on Phage) [phage clone WEPDCAWHLGELVWCTKVEE] | – | EC50 (IgG-Fc [1]): 36 nM
22 | KEADCAWHLGELVWCVAGVE (M13/gIII phage display; Focused Libraries) [phage clone KEADCAWHLGELVWCVAGVE] | 138 | –
23 | KEASCSWHLGELVWCVAGVE (M13/gIII phage display; Focused Libraries) [phage clone KEASCSWHLGELVWCVAGVE] | 225 | –
24 | KEASCSYHLGELVWCVAGVE (M13/gIII phage display; Focused Libraries) [phage clone KEASCSYHLGELVWCVAGVE] | 416 | –
25 | KEASCSYWLGELVWCSPGVE (M13/gIII phage display; Focused Libraries) [phage clone KEASCSYWLGELVWCSPGVE] | 734 | –
26 | KEASCSYWLGELVWCTEGVE (M13/gIII phage display; Focused Libraries) [phage clone KEASCSYWLGELVWCTEGVE] | 818 | –
27 | DLADCSWHLGELVWCSRVEG (M13/gIII phage display; Designed Clones) [phage clone DLADCSWHLGELVWCSRVEG] | 9 | –
28 | DLADCSYWLGELVWCSRVEG (M13/gIII phage display; Focused Libraries) [phage clone DLADCSYWLGELVWCSRVEG] | 776 | –
29 | KEARCWYWHGELVWCSDPEE (M13/gIII phage display; Focused Libraries) [phage clone KEARCWYWHGELVWCSDPEE] | 809 | –
30 | KEASCSYWLGELVWCDGLDE (M13/gIII phage display; Focused Libraries) [phage clone KEASCSYWLGELVWCDGLDE] | 326 | –
31 | KEASCSYWLGELVWCDTFDE (M13/gIII phage display; Focused Libraries) [phage clone KEASCSYWLGELVWCDTFDE] | 301 | –
32 | KEASCSYWLGELVWCVGLDE (M13/gIII phage display; Focused Libraries) [phage clone KEASCSYWLGELVWCVGLDE] | 278 | –
33 | WVEDCSWHMGELVWCDGGEF (M13/gIII phage display; Focused Libraries) [phage clone WVEDCSWHMGELVWCDGGEF] | 139 | –
34 | DLADCSWHLGELVWCVGLDE (M13/gIII phage display; Designed Clones) [phage clone DLADCSWHLGELVWCVGLDE] | 28 | –
35 | WVEDCSWHLGELVWCVGLDF (M13/gIII phage display; Designed Clones) [phage clone WVEDCSWHLGELVWCVGLDF] | 31 | –
36 | KVADCAWHMGELVWCTEVEG (M13/gIII phage display; Secondary Optimization) [phage clone KVADCAWHMGELVWCTEVEG] | 23 | –
37 | GEEDCSYHLGELVMCTELDD (M13/gIII phage display; Secondary Optimization) [phage clone GEEDCSYHLGELVMCTELDD] | 69 | –
38 | GEEDCAWHLGELVWCSGGDF (M13/gIII phage display; Secondary Optimization) [phage clone GEEDCAWHLGELVWCSGGDF] | 100 | –
39 | GEADCSYHLGELVWCNDFEE (M13/gIII phage display; Secondary Optimization) [phage clone GEADCSYHLGELVWCNDFEE] | 156 | –
40 | WVDCAYHLGELVWCSTFEE (M13/gIII phage display; Secondary Optimization; printed with 19 residues) [phage clone WVDCAYHLGELVWCSTFEE] | 9 | –

Row | Binder | EC50 (IgG-Fc [2]) [nM] | also measured
41 | WVEDCAWHMGELVWCTKVDE (M13/gIII phage display; Secondary Optimization) [phage clone WVEDCAWHMGELVWCTKVDE] | 70 | –
42 | READCAWHLGELVWCSERDL (M13/gIII phage display; Secondary Optimization) [phage clone READCAWHLGELVWCSERDL] | 47 | –
43 | EEASCAYHLGELVWCDAFDV (M13/gIII phage display; Secondary Optimization) [phage clone EEASCAYHLGELVWCDAFDV] | 77 | –
44 | GEASCAYHLGELVWCDEGEG (M13/gIII phage display; Secondary Optimization) [phage clone GEASCAYHLGELVWCDEGEG] | 386 | –
45 | RVEDCAYHLGELVWCTEGDE (M13/gIII phage display; Secondary Optimization) [phage clone RVEDCAYHLGELVWCTEGDE] | 63 | –
46 | EEPDCSWHLGELVMCTPMEV (M13/gIII phage display; Secondary Optimization) [phage clone EEPDCSWHLGELVMCTPMEV] | 14 | –
47 | EEPDCSWHLGELVWCTPIEV (M13/gIII phage display; Secondary Optimization) [phage clone EEPDCSWHLGELVWCTPIEV] | 15 | –
48 | KEADCAWHMGELVWCSEMEG (M13/gIII phage display; Secondary Optimization) [phage clone KEADCAWHMGELVWCSEMEG] | 66 | –
49 | EQADCAWHLGELVWCTPMVF (M13/gIII phage display; Secondary Optimization) [phage clone EQADCAWHLGELVWCTPMVF] | 8 | –
50 | GEPDCAWHLGELVWCTPMVF (M13/gIII phage display; Secondary Optimization) [phage clone GEPDCAWHLGELVWCTPMVF] | 7 | –
51 | GEQDCSYHMGELVWCTTVDG (M13/gIII phage display; Secondary Optimization) [phage clone GEQDCSYHMGELVWCTTVDG] | 210 | –
52 | GVRNCAYHLGELVWCTPMEF (M13/gIII phage display; Secondary Optimization) [phage clone GVRNCAYHLGELVWCTPMEF] | 10 | –
53 | RVADCAWHMGELVWCSELEV (M13/gIII phage display; Secondary Optimization) [phage clone RVADCAWHMGELVWCSELEV] | 44 | –
54 | EVADCSWHLGELVWCTEGEF (M13/gIII phage display; Secondary Optimization) [phage clone EVADCSWHLGELVWCTEGEF] | 54 | –
55 | GEEDCAWHLGELVWCTDVED (M13/gIII phage display; Secondary Optimization) [phage clone GEEDCAWHLGELVWCTDVED] | 52 | –
56 | EVEDCAYHLGELVWCSDLEG (M13/gIII phage display; Secondary Optimization) [phage clone EVEDCAYHLGELVWCSDLEG] | 82 | –
57 | WEEDCAWHLGELVWCAEFDE (M13/gIII phage display; Secondary Optimization) [phage clone WEEDCAWHLGELVWCAEFDE] | 44 | –
58 | KEASCAWHLGELVWCSEVEE (M13/gIII phage display; Secondary Optimization) [phage clone KEASCAWHLGELVWCSEVEE] | 130 | –
